The target in assay [1] is head-only RSV F immunogen i-210 (respiratory syncytial virus subtype A, strain A2 | bacteriophage T4) (UniProt P03420). Kind of assay: BLI; head-only variants (50 ug/ml) held on anti-His-tag (HIS1K) tips; Fabs in solution 0.016-0.5 uM; 30°C, PBS + 1% BSA; global 1:1 fit. (Biolayer interferometry detects binding as a change in optical thickness at a sensor tip.)
For assay [2], the target named is head-only RSV F immunogen i-273 (respiratory syncytial virus subtype A, strain A2) (UniProt P03420). The description is as above.
For assay [3] the target is unchanged. Kind of assay: negative-stain electron microscopy; immunogens alone or mixed with D25 and/or motavizumab Fabs; 20 mM HEPES pH 7.0, 150 mM NaCl; uranyl formate; reference-free 2D class averages.
For assay [4], the target named is T1, head-only RSV F immunogen i-273 (Human respiratory syncytial virus A, …, S155C | S190F | V207L | S290C | L258K | L273K).
T1 construct: RSV fusion (F) glycoprotein, subtype A strain A2, F1 segment of domain III (head); numbers count on: PDB entry 4JHW; linker; RSV fusion (F) glycoprotein, subtype A strain A2, F2 segment of domain III (head); Circular permutant F1-GG-F2; A signal peptide for secretion was added; Tags are thrombin-cleavable: held by the His-tag in the kinetic BLI; said to be cleaved before SEC, EM and immunisation; …
T1 chain: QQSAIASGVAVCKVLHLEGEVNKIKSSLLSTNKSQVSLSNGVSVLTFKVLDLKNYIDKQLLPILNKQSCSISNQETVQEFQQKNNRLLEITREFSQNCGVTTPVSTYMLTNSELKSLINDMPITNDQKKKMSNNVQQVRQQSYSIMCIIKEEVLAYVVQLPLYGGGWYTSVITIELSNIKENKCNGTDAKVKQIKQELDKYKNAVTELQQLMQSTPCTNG
Kind of assay: BLI; head-only variants (50 ug/ml) held on anti-His-tag (HIS1K) tips; Fabs in solution 0.016-0.5 uM; 30°C, PBS + 1% BSA; global 1:1 fit. The conditions noted are these: both partners purified.

The target of assay [5] is T2, head-only RSV F immunogen i-447 (Human respiratory syncytial virus A, …, S190F | S155C | S290C).
T2 construct: RSV fusion (F) glycoprotein, subtype A strain A2, F1 segment of domain III (head); numbers count on: PDB entry 4JHW; linker; RSV fusion (F) glycoprotein, subtype A strain A2, F2 segment of domain III (head); MTQ-F1-GGPG-F2; A signal peptide for secretion was added; Tags are thrombin-cleavable: held by the His-tag or Strep-tag in BLI; said to be cleaved before SEC, EM and immunisation; also called …
T2 chain: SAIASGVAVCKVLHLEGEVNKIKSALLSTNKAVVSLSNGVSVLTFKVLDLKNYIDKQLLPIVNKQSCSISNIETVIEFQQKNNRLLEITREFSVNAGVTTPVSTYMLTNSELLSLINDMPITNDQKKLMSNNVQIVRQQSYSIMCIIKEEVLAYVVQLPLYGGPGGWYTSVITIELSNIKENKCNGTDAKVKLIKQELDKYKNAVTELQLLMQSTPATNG
Described as above. The conditions noted are these: both partners purified.

Assay [6] deals with T3, head-only RSV F immunogen i-210 (Human respiratory syncytial virus A, …, S155C | S190F | V207L | S290C | L258K).
T3 construct: RSV fusion (F) glycoprotein, subtype A strain A2, F1 segment of domain III (head); numbers count on: PDB entry 4JHW; linker; RSV fusion (F) glycoprotein, subtype A strain A2, F2 segment of domain III (head); linker to the foldon; bacteriophage T4 foldon trimerization domain (of fibritin); Circular permutant F1-GGSGG-F2-GGSGGSG-foldon; A signal peptide for secretion was added; Tags are …
T3 chain: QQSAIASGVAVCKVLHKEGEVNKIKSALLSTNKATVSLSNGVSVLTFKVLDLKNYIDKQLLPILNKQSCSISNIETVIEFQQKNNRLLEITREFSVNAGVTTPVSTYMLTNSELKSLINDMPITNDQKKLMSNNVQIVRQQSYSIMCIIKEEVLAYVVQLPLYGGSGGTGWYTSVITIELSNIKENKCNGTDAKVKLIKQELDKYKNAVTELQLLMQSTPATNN
Described as above. The conditions noted are these: both partners purified.

In assay [7] the target is T4, head-only RSV F immunogen i-693 (Human respiratory syncytial virus A, …, S155C | S190F | V207L | S290C | S155C | S190F | V207L | S290C).
T4 construct: RSV fusion (F) glycoprotein, subtype A strain A2, F2 segment of domain III, first monomer; numbers count on: PDB entry 4JHW; linker between F2 and F1; RSV fusion (F) glycoprotein, subtype A strain A2, F1 segment, first monomer; linker between the two identical monomers; RSV fusion (F) glycoprotein, subtype A strain A2, F2 segment of domain III, second monomer; RSV fusion (F) glycoprotein, subtype …
T4 chain: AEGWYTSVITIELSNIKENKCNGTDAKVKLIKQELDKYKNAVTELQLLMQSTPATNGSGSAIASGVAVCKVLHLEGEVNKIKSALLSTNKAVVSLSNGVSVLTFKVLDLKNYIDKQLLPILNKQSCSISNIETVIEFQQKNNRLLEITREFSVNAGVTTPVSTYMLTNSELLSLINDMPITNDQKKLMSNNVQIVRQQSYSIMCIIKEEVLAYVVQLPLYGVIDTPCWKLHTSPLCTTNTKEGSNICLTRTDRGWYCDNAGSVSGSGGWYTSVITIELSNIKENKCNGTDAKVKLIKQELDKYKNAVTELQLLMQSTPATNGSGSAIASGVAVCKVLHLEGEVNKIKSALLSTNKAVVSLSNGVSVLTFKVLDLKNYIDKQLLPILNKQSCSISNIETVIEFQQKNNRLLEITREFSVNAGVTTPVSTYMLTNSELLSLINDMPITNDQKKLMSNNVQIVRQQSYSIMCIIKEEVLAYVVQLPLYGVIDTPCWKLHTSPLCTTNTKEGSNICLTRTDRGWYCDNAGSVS
Described as above. As to conditions: both partners purified.

Take motavizumab Fab: the Kd in assay [1] was 761 nM; in assay [2], 1360 nM. For the same molecule, the percent of particles with bound Fab in assay [3] is less than 10%.

B1: D25 Fab (Fab, V domains shown)
VH: QVQLVQSGAEVKKPGSSVMVSCQASGGPLRNYIINWLRQAPGQGPEWMGGIIPVLGTVHYAPKFQGRVTITADESTDTAYIHLISLRSEDTAMYYCATETALVVSTTYLPHYFDNWGQGTLVTVSS
VL: DIQMTQSPSSLSAAVGDRVTITCQASQDIVNYLNWYQQKPGKAPKLLIYVASNLETGVPSRFSGSGSGTDFSLTISSLQPEDVATYYCQQYDNLPLTFGGGTKVEIK
notes: Antigenic site Ø-directed antibody; also called Fab D25; source: HEK 293-F, co-transfected heavy and light chain plasmids; IgG on Protein A, digested with Lys-C or HRV3C protease, Fab purified by SEC
As to B1, the Kd stood at 33.3 nM in assay [4], 0.7 nM in assay [5], 0.7 nM in assay [6] and 9.9 nM in assay [7].

B2: motavizumab Fab (Fab, V domains shown)
VH: QVTLRESGPALVKPTQTLTLTCTFSGFSLSTAGMSVGWIRQPPGKALEWLADIWWDDKKHYNPSLKDRLTISKDTSKNQVVLKVTNMDPADTATYYCARDMIFNFYFDVWGQGTTVTVSS
VL: DIQMTQSPSTLSASVGDRVTITCSASSRVGYMHWYQQKPGKAPKLLIYDTSKLASGVPSRFSGSGSGTEFTLTISSLQPDDFATYYCFQGSGYPFTFGGGTKVEIK
notes: Antigenic site II-directed antibody; also called Fab motavizumab; source: HEK 293-F, co-transfected heavy and light chain plasmids; IgG on Protein A, digested with Lys-C or HRV3C protease, Fab purified by SEC
With B2, the Kd stood at 0.5 nM in assay [5] and 6.5 nM in assay [7].

Broadly, the Kd is the concentration at which binding is half-saturated.
